The test addresses HBV virions (Genotype D) (Hepatitis B virus genotype D). The experiment in a line: cell-based or functional assay.

Results on one substance are retold here after patent US20240327500A1.

As to HBC34 (antibody), the neutralization at 0.03 µg/ml, in-vitro assay was found to be 29%.
